Drawing on US20030175681A1, this text covers IC50 for one substance.

The target in the experiment is rhCMV (strain 68.1) US28 homolog(s): fractalkine-binding receptor protein expressed on rhCMV-infected rhesus dermal fibroblasts and on rhCMV virions. The experiment in a line: homologous competition: unlabeled fractalkine displaces 125I-fractalkine from rhCMV-infected rhesus dermal fibroblasts, filter binding.

Sequence of fractalkine (P78423 25-100 limits assumed): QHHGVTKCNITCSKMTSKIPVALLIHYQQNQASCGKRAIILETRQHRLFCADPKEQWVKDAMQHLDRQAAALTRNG

The IC50 is the midpoint of a concentration-inhibition curve. Higher therefore signals weaker potency in that assay. As for “fractalkine (from UniProt P78423 25-100) (ligand)”, the IC50 worked out at 0.044 nM.
